Results taken from the supplement of paper PMC10126150.
± gives the standard deviation of the averaged measurements.

System: ATP
Assay: switch fluorescence ratio, 500 uM ATP over buffer (Cy3 cluster intensity, sum of 5 cycles each) (fold (ratio)); higher = stronger signal-on switching upon ATP binding; sequences stand for … in TCGTCGGCAGCGTCAGATGTGTATAAGAGACAGTTTTTTTTTTTTTTTTTTTTTTTTT…TC
Conditions: aptamer strand: ATP DNA aptamer (quencher-CACCTGGGGGAGTATTGCGGAGGAAGG + anchor), 100 nM annealed; ATP concentration: 500 uM
How it was run: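 Cy3-labelled switching-strand clusters on a modified Illumina MiSeq flow-cell were annealed to 100 nM quencher-labelled ATP aptamer, imaged in selection buffer, then imaged after 15 min with 500 uM ATP at 22 °C. Five buffer/ATP cycles ran, with NaOH stripping and re-annealing between them. The fluorescence ratio is summed target-cycle over summed buffer-cycle Cy3 intensity per cluster, averaged per switch-domain sequence. Clusters outside 100-1000 RFU were excluded.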
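Note: ATP exposure 15 min at 22 °C before imaging.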

GGGATATTTT showed a switch fluorescence ratio of 0.977 ± 0.018.
For GGACTCAGGG, the switch fluorescence ratio was 1.03 ± 0.051.
Sequence TCTGTCCG has a switch fluorescence ratio of 1.05 ± 0.14.
With ATTGGTTTTT the switch fluorescence ratio was 1.07 ± 0.19.
In the case of AGATATCATG, the switch fluorescence ratio is reported as 0.973 ± 0.037.
ATTGCTGGCG was tested, and the switch fluorescence ratio was 0.939 ± 0.039.
For ATGAAATCTG, the switch fluorescence ratio was 1.06 ± 0.074.
GCTGGGTAGT was tested, and the switch fluorescence ratio was 1.01 ± 0.022.
GAGTATACGT showed a switch fluorescence ratio of 1.022 ± 0.0048.
Sequence CGGTACCGTG has a switch fluorescence ratio of 0.9844 ± 0.007.
With GGCTAATGGG the switch fluorescence ratio was 1.021 ± 0.0043.
With TTAGAATTAG the switch fluorescence ratio was 1 ± 0.017.
Work on GATGGATAGT yielded a switch fluorescence ratio of 0.992 ± 0.02.
Sequence GCGTAAGGAG has a switch fluorescence ratio of 1.06 ± 0.096.
TGGGGATAGG was tested, and the switch fluorescence ratio was 1.01 ± 0.022.
With GGGTTAGAGG the switch fluorescence ratio was 0.9959 ± 0.0071.
In the case of ATTGGGGTG, the switch fluorescence ratio is reported as 1.03 ± 0.11.
GGTGGTTGGC gave a switch fluorescence ratio of 1.007 ± 0.0075.
With GGGAGTGGCC the switch fluorescence ratio was 1.01 ± 0.032.
With AGGAGAAAAG the switch fluorescence ratio was 1.22 ± 0.29.
CGGCAGTATC showed a switch fluorescence ratio of 1.51 ± 0.12.
Sequence ATTAAGCTGT has a switch fluorescence ratio of 1.009 ± 0.01.
TCTCAAATTT showed a switch fluorescence ratio of 0.975 ± 0.029.
GTAATGATCT was tested, and the switch fluorescence ratio was 1.06 ± 0.036.
GGGTGAAATG gave a switch fluorescence ratio of 0.994 ± 0.023.
GTAGTAGGTG was tested, and the switch fluorescence ratio was 1 ± 0.033.
Sequence TGGATAAGCG has a switch fluorescence ratio of 1 ± 0.032.
GATGGGCACT was tested, and the switch fluorescence ratio was 1.05 ± 0.029.
CATTTGGGTA was tested, and the switch fluorescence ratio was 1.01 ± 0.014.
In the case of ACTAGCGGCG, the switch fluorescence ratio is reported as 1.05 ± 0.024.
Sequence TTTCGGAACC has a switch fluorescence ratio of 1.2 ± 0.22.
TATGGGAGGG was tested, and the switch fluorescence ratio was 0.952 ± 0.022.
GTTGGTTTTT was tested, and the switch fluorescence ratio was 0.975 ± 0.027.
Work on CAGAGTGGGA yielded a switch fluorescence ratio of 1.03 ± 0.016.
With CCGGGGTCCG the switch fluorescence ratio was 1.13 ± 0.041.
With TCAGGAGTCG the switch fluorescence ratio was 1.02 ± 0.06.
Work on CACTCATTGG yielded a switch fluorescence ratio of 1.039 ± 0.008.
In the case of ATGAGTGGAG, the switch fluorescence ratio is reported as 1.034 ± 0.004.
Sequence GGGTGGATGA has a switch fluorescence ratio of 1.03 ± 0.042.
Work on ATCCATTCA yielded a switch fluorescence ratio of 1.02 ± 0.0094.
AATAAGCACA gave a switch fluorescence ratio of 1.2 ± 0.028.
With CTTAATCACT the switch fluorescence ratio was 1.03 ± 0.083.
Work on AATACGGTAT yielded a switch fluorescence ratio of 1.05 ± 0.05.
TTTTACCCGC showed a switch fluorescence ratio of 1.11 ± 0.078.
With TGTTAGTTAT the switch fluorescence ratio was 1.06 ± 0.066.
CTATAAAAGT showed a switch fluorescence ratio of 0.9983 ± 0.0076.
With CGACTTGAAA the switch fluorescence ratio was 1.04 ± 0.041.
With TGTGGGGCTG the switch fluorescence ratio was 1.02 ± 0.08.
For AGGGTTGGGT, the switch fluorescence ratio was 1.01 ± 0.03.
In the case of TTCCGGGCTA, the switch fluorescence ratio is reported as 1.47 ± 0.62.
With CGTTAATCTT the switch fluorescence ratio was 0.995 ± 0.049.
In the case of CGTGCACAAA, the switch fluorescence ratio is reported as 0.9815 ± 0.0059.
With CGTTTTGGGC the switch fluorescence ratio was 1.04 ± 0.033.
In the case of AAATACGTTT, the switch fluorescence ratio is reported as 1 ± 0.016.
Sequence TTATTAGTAT has a switch fluorescence ratio of 1.02 ± 0.016.
Sequence GATGCGCGTG has a switch fluorescence ratio of 1 ± 0.019.
Sequence CTTTTCATTG has a switch fluorescence ratio of 1.06 ± 0.089.
CATGAGTAGG showed a switch fluorescence ratio of 0.979 ± 0.016.
GGGCCTGATG gave a switch fluorescence ratio of 1.01 ± 0.012.
For GGAAATTTGG, the switch fluorescence ratio was 0.993 ± 0.037.
GGGGTATGGA was tested, and the switch fluorescence ratio was 0.989 ± 0.023.
TGTTAATGTT was tested, and the switch fluorescence ratio was 1 ± 0.029.
With GAGAACGAGG the switch fluorescence ratio was 0.983 ± 0.023.
Work on AATAATGCGT yielded a switch fluorescence ratio of 0.994 ± 0.034.
Sequence GACGTGGGGC has a switch fluorescence ratio of 1.131 ± 0.0064.
For AAGATGCAGC, the switch fluorescence ratio was 1.05 ± 0.12.
Sequence AAGTCGCATA has a switch fluorescence ratio of 1.04 ± 0.017.
Sequence TTATAAGGGG has a switch fluorescence ratio of 0.979 ± 0.04.
In the case of ATCAAGTGAG, the switch fluorescence ratio is reported as 0.998 ± 0.015.
GATTGTGCGG gave a switch fluorescence ratio of 0.981 ± 0.025.
With GGGGGTGGCC the switch fluorescence ratio was 0.952 ± 0.098.
With AGAGTGCGGT the switch fluorescence ratio was 1.011 ± 0.006.
ACTAGTGTCA gave a switch fluorescence ratio of 1 ± 0.04.
Sequence ATTCGGGATG has a switch fluorescence ratio of 0.979 ± 0.017.
Work on TGGGGGGGCT yielded a switch fluorescence ratio of 1.02 ± 0.036.
CTGGGGGTGT gave a switch fluorescence ratio of 1.05 ± 0.04.
Sequence ACTCTTGTAT has a switch fluorescence ratio of 1.045 ± 0.0058.
Sequence AGTAAAGGGT has a switch fluorescence ratio of 0.999 ± 0.012.
With TTTCCTTGCT the switch fluorescence ratio was 1.49 ± 0.59.
GATAAATGAT showed a switch fluorescence ratio of 1 ± 0.02.
Work on GGTCTAGAAA yielded a switch fluorescence ratio of 1.21 ± 0.3.
For TTCAGGAGGG, the switch fluorescence ratio was 0.991 ± 0.042.
CTTGATTTGA showed a switch fluorescence ratio of 1.001 ± 0.0089.
TGATGATGAC showed a switch fluorescence ratio of 1.01 ± 0.0038.
Work on TAATGTATTA yielded a switch fluorescence ratio of 1.01 ± 0.027.
GGTAGTAATT was tested, and the switch fluorescence ratio was 0.998 ± 0.0029.
Sequence ATAAAGGCGA has a switch fluorescence ratio of 0.975 ± 0.043.
Work on GTGGTGGGAC yielded a switch fluorescence ratio of 0.972 ± 0.042.
TCAGTCCGGA showed a switch fluorescence ratio of 1.02 ± 0.024.
Work on TTTCTGTACG yielded a switch fluorescence ratio of 1.1 ± 0.068.
CGCTTGTGTT showed a switch fluorescence ratio of 0.9821 ± 0.0015.
With TGATTAATGT the switch fluorescence ratio was 0.9996 ± 0.0099.
Work on GCAGGGAGAG yielded a switch fluorescence ratio of 0.964 ± 0.022.
TGGGGGTACG showed a switch fluorescence ratio of 1.028 ± 0.0016.
For TACCTAGAAC, the switch fluorescence ratio was 1.07 ± 0.056.
Work on GTGGTCGAGA yielded a switch fluorescence ratio of 0.986 ± 0.033.
In the case of TCGGGTTGGG, the switch fluorescence ratio is reported as 0.975 ± 0.023.
With AACCTTATTT the switch fluorescence ratio was 0.9965 ± 0.0022.
Work on GAGCCGGGTA yielded a switch fluorescence ratio of 0.9982 ± 0.0063.
For ACTTGGCATC, the switch fluorescence ratio was 1.13 ± 0.043.
TTGGTAGGGT was tested, and the switch fluorescence ratio was 0.995 ± 0.031.
CCGGTGGATT was tested, and the switch fluorescence ratio was 1.21 ± 0.3.
TTGGGGAAAA showed a switch fluorescence ratio of 1.04 ± 0.054.
Sequence ATAAAGGGCT has a switch fluorescence ratio of 0.988 ± 0.054.
Work on CTGAGAGACA yielded a switch fluorescence ratio of 0.991 ± 0.04.
TTTTTGGGAG showed a switch fluorescence ratio of 1.01 ± 0.024.
TTTATATGTT showed a switch fluorescence ratio of 1.03 ± 0.04.
ATATCGGGGG was tested, and the switch fluorescence ratio was 1.01 ± 0.081.
TCGCGCAGAA was tested, and the switch fluorescence ratio was 1.061 ± 0.0063.
GAAGCTGAAT showed a switch fluorescence ratio of 1.01 ± 0.0029.
Work on TTGAGTGCTT yielded a switch fluorescence ratio of 0.987 ± 0.028.
ATGGTTGTCA was tested, and the switch fluorescence ratio was 1.03 ± 0.015.
GGATATGAGG was tested, and the switch fluorescence ratio was 1 ± 0.018.
GCCAACGGGG gave a switch fluorescence ratio of 1 ± 0.028.
Sequence CGGATATTGT has a switch fluorescence ratio of 0.995 ± 0.028.
For CGCGGGGGAT, the switch fluorescence ratio was 1.03 ± 0.067.
CCGAGAGGGG gave a switch fluorescence ratio of 0.999 ± 0.041.
AATGAGTTTT gave a switch fluorescence ratio of 0.998 ± 0.027.
TCAGTTTGGT gave a switch fluorescence ratio of 0.99 ± 0.017.
Sequence CGGGTTTTCG has a switch fluorescence ratio of 0.988 ± 0.018.
Sequence GTGTTTAGTG has a switch fluorescence ratio of 0.9787 ± 0.0029.
AGACTGGGTT showed a switch fluorescence ratio of 0.971 ± 0.012.
Work on TACTAGGCTG yielded a switch fluorescence ratio of 0.992 ± 0.081.
For GCAGCGGACT, the switch fluorescence ratio was 1.29 ± 0.042.
In the case of GATTGAATCC, the switch fluorescence ratio is reported as 1.01 ± 0.059.
GTTTGCATTT was tested, and the switch fluorescence ratio was 0.981 ± 0.015.
With GAGCGTAGGG the switch fluorescence ratio was 0.9537 ± 0.0089.
Sequence GGTATTGGCA has a switch fluorescence ratio of 0.996 ± 0.022.
In the case of TAGGGGGCTC, the switch fluorescence ratio is reported as 0.959 ± 0.02.
With TTTATGAGTG the switch fluorescence ratio was 0.997 ± 0.031.
ATGGATACGG was tested, and the switch fluorescence ratio was 1.02 ± 0.011.
Sequence AGTCAACTTG has a switch fluorescence ratio of 1.01 ± 0.053.
GTGTTATAGG showed a switch fluorescence ratio of 1 ± 0.026.
For ATTGATGTTC, the switch fluorescence ratio was 0.99 ± 0.053.
Work on TCCGGTAGTT yielded a switch fluorescence ratio of 1.06 ± 0.013.
Sequence TTGCCTTCTT has a switch fluorescence ratio of 1.03 ± 0.033.
Work on TGACCGGAGT yielded a switch fluorescence ratio of 1.03 ± 0.033.
GAAAATGCAT was tested, and the switch fluorescence ratio was 0.99 ± 0.013.
Work on TATAAGGATG yielded a switch fluorescence ratio of 0.993 ± 0.019.
TCATGCTGAG was tested, and the switch fluorescence ratio was 0.98 ± 0.0077.
TCTGATTGGT was tested, and the switch fluorescence ratio was 0.9945 ± 0.0034.
AATTATTGTT gave a switch fluorescence ratio of 0.996 ± 0.017.
GAGTGATGTT was tested, and the switch fluorescence ratio was 0.979 ± 0.012.
For GTGATTGGAG, the switch fluorescence ratio was 0.966 ± 0.025.
For TAAAATGTTT, the switch fluorescence ratio was 0.998 ± 0.013.
GGTTGGGGGA gave a switch fluorescence ratio of 1.02 ± 0.024.
For TAGGCGTGCT, the switch fluorescence ratio was 0.987 ± 0.013.
For ATGTCCTATG, the switch fluorescence ratio was 1.003 ± 0.0066.
TAGGATGTGT gave a switch fluorescence ratio of 1 ± 0.0056.
GAGGTTTATA showed a switch fluorescence ratio of 0.984 ± 0.043.
With GGGGAAGATA the switch fluorescence ratio was 0.9862 ± 0.0025.
In the case of ATTGTTTCTA, the switch fluorescence ratio is reported as 1 ± 0.014.
AATGCCTCAG showed a switch fluorescence ratio of 1 ± 0.024.
In the case of ATGTGATATG, the switch fluorescence ratio is reported as 0.994 ± 0.042.
With AGTCGTTTTT the switch fluorescence ratio was 0.98 ± 0.026.
Work on GGGTGGTAAG yielded a switch fluorescence ratio of 0.997 ± 0.051.
Work on AAGGCGTTTT yielded a switch fluorescence ratio of 1.01 ± 0.018.
